Laboratory results from patent US20230080224A1 (AGENCY FOR SCIENCE TECHNOLOGY AND RESEARCH, published 2023).
One block for each binder: values may come before it.

Legend:
[1] = target: T1, human ALPPL2 (recombinant protein) (human, UniProt P10696 20-503); assay: BLI; single concentration
T1 chain: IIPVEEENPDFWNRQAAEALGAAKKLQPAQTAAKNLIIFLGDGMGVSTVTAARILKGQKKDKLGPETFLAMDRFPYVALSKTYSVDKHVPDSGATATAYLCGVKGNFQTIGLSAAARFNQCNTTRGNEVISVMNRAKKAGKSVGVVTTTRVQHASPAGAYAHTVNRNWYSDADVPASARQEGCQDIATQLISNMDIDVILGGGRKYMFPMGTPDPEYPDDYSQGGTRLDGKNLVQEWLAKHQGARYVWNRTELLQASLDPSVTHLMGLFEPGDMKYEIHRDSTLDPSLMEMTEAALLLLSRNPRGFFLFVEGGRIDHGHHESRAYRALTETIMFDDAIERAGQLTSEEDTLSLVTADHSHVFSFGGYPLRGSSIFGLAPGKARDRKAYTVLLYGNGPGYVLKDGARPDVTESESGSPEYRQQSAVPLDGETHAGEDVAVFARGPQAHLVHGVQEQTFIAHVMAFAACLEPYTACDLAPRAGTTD

[2] = target: T2, ALPI (screening and SPR/ELISA protein) (UniProt P09923 20-503, limits assumed); assay: screen of rabbit B-cell clones by ELISA and FACS
T2 sequence (looked up): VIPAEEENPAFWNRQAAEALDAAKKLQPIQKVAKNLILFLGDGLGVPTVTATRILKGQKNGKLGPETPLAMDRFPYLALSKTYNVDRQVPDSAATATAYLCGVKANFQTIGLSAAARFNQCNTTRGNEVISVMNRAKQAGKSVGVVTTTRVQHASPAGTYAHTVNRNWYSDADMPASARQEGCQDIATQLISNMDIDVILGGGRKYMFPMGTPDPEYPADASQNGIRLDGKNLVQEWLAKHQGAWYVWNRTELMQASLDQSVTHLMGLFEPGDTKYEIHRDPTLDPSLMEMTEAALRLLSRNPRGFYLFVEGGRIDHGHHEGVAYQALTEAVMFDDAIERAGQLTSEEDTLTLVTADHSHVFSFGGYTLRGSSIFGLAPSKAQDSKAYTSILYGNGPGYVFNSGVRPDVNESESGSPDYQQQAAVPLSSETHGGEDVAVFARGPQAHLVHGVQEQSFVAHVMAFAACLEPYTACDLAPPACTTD
From the text: (§1) Specific clones were screened and identified by ELISA and high throughput flow cytometry (FIG. 3). Rabbit kidney cells were transfected with either truncated (for ELISA screen) or full-length (for FACS screen) ALPI and ALPPL2.

[3] = target: T3, human ALPPL2 (recombinant protein) (human, UniProt P10696 20-503, limits assumed); assay: screen of rabbit B-cell clones by ELISA and FACS
T3 construct: biotinylated where captured on streptavidin
From the text: as §1

[4] = target: T4, human ALPPL2 expressed on cells (human, UniProt P10696 20-503); assay: immunohistochemistry on FFPE ALPPL2+ve cell lines and tumor tissues
T4 construct: whole, on cells; also called placental-like alkaline phosphatase
Procedure: To enable development of a companion diagnostic, the IHC activity of the antibodies was evaluated (FIG. 5). Antigen retrieval by Proteinase-K digestion, but not heat mediated antigen retrieval, enabled detection. C36, C45 and C130 enabled detection in ALPPL2+ve cell lines (SCH) and formalin fixed paraffin embedded (FFPE) human tumor tissues by IHC. […] This is also indicative the optimal therapeutic window of these antibodies in the clinic.

[5] = target: T3, human ALPPL2 (recombinant protein); assay: SPR, Biacore T200, ligand captured by streptavidin on CM5 chip, antibody as analyte
Procedure: (§2) Select clones (C4, C15, C131, C12, C18, C36 and C53) were humanized by grafting the CDRs to a human IgG1 framework. […] Surface plasmon resonance was studied using Biacore T200. Ligands (e.g. ALPPL2 or ALPP) were immobilized on biosensors CM5 chips captured with the streptavidin. Ligands-loaded sensors were then incubated with different concentrations of analyte (recombinant expressed humanized antibody clones) to measure affinity.

[6] = target: human ALPP (recombinant protein) (human, UniProt P05187 23-506, limits assumed); assay: as above
Procedure: as §2

[7] = target: T1, human ALPPL2 (recombinant protein); assay: SPR
[8] = target: T5, human ALPP (recombinant protein) (human, UniProt P05187 23-506); assay: SPR
T5 chain: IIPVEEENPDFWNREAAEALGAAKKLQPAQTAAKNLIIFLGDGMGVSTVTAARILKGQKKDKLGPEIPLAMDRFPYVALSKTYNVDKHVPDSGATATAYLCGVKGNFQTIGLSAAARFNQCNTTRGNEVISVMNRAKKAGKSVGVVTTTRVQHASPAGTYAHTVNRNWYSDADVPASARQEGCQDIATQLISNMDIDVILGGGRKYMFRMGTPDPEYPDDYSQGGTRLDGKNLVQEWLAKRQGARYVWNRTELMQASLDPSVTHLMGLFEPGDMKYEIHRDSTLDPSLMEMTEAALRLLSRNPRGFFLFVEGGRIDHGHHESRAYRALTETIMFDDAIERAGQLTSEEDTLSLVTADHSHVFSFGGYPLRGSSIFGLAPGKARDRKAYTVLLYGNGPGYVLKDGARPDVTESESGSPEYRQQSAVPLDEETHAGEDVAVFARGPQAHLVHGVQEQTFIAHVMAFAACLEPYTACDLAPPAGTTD

[9] = target: T4, human ALPPL2 expressed on cells; assay: FACS (FIG. 13)
[10] = target: T6, human ALPP expressed on cells (human, UniProt P05187 23-506); assay: FACS (FIG. 13)
T6 construct: whole, on cells

[11] = target: T7, human ALPL expressed on cells (human, UniProt P05186 18-501); assay: FACS on transiently transfected 293T cells (FIG. 13A)
T7 construct: whole, on cells
T7 sequence (looked up): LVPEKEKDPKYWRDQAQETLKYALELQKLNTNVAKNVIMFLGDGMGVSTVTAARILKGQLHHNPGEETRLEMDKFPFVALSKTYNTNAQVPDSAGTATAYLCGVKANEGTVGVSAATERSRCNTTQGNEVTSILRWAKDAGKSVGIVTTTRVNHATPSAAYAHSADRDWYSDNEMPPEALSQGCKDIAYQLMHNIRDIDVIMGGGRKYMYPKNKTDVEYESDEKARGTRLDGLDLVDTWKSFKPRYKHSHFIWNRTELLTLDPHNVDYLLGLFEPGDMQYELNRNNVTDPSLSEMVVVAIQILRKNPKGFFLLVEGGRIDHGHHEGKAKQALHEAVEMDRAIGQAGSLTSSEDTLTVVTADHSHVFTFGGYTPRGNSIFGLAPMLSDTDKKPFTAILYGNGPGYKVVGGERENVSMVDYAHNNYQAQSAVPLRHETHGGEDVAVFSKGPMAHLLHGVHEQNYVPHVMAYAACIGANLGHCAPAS

[12] = target: T8, human ALPI expressed on cells (human, UniProt P09923 20-503); assay: as above
T8 construct: whole, on cells
T8 sequence (looked up): T2 sequence (looked up)

[13] = target: T1, human ALPPL2 (recombinant protein); assay: BLI
[14] = target: T5, human ALPP (recombinant protein); assay: BLI

B1: AB1C36 (antibody, V domains shown)
VH: QSLEESGGDLVKPGASLTLTCTASGFSFSSGYNICWVRQAPGKGLELIACIYTSSSGSTYYASWAKGRFTISKTSSTTVTLQMTSLTVADTATYFCARGEAYYAYGYVGYAYYHGAFDPWGPGTLVTVSS
VL: DIVMTQTPASVEAGVGGTVTIKCQASHSISKYFSWYQQKIGQPPKLLIYEASTLASGVPSRFKGSGSGTQFTLTISDLECADAATYYCQSYYYGTSSSYAFGGGTEVVVK
notes: Rabbit antibody cloned from a single B cell
- Kd [1]: 1.6 nM
- binding result [2]: no binding
- binding result [3]: binds
- binding result [4]: binds

B3: humanized C4 (antibody, V domains shown)
VH: EVQLVESGGGLVQPGGSLRLSCAASGFTISNNYWICWVRQAPGKGLEWIGCIATGDGSTYYASWAKGRFTISRDNSKNTLYLQMNSLRAEDTAVYYCARGAAGSSWTTYFDFWGQGTLVTVSS
VL: DIQMTQSPSSLSASVGDRVTITCQAGQNIDNYLSWYQQKPGKVPKLLIYRASTLASGVPSRFSGSGSGTDFTLTISSLQPEDVATYYCQNNNGGSTFTGFPFGQGTKVEIK
notes: CDRs grafted to a human IgG1 framework; recombinant; also called hC4
- binding result [5]: binds
- binding result [6]: binds
- Kd [7]: 0.014 nM
- Kd [8]: 0.0001 nM
- binding result [9]: binds
- binding result [10]: binds
- binding result [11]: no binding
- binding result [12]: no binding

B4: AB1C45 (antibody, V domains shown)
VH: QERLEESGGGLVQPEGSLTLTCTASGFSFSSSYYMCWVRQAPGKGMEWIGCIYTGNDDTWYASWAKGRFTVSKTSSTTVTLQMTSLTATDTATYFCARGLSPIDLWGPGTLVTVSS
VL: IVMTQTPSSKSVPVGDTVTINCQASESIYNNNNLGWYQQKPGQPPKLLIYWASTLASGVPSRFKGSGSGTQFTLTISDVECDDAATYYCAGYKSRTTDGSAFGGGTEVVVK
notes: as for B1
- binding result [2]: no binding
- binding result [3]: binds
- binding result [4]: binds

B5: humanized C18 (antibody, human IgG1, V domains shown)
VH: EVQLVESGGGLVQPGGSLRLSCAASGFSFSSYWTCWVRQAPGKGLEWLGCTDGGSSGDTYYATWAKGRFTISRDNSKNTLYLQMNSLRAEDTAVYYCARNLITWDLWGQGTLVTVSS
VL: DIQMTQSPSSLSASVGDRVTITCQASESVYNNNQLSWYQQKPGKVPKLLIYWASKLASGVPSRFSGSGSGTDFTLTISSLQPEDVATYYCAGYKSSITDGNAFGQGTKVEIK
notes: CDRs grafted to a human IgG1 framework; recombinant; also called hC18
- binding result [5]: binds
- binding result [6]: binds
- Kd [7]: 0.144 nM
- Kd [8]: 0.526 nM

B7: humanized C36 (antibody, human IgG1, V domains shown)
VH: EVQLVESGGGLVQPGGSLRLSCAASGFSFSSGYNICWVRQAPGKGLELIACIYTSSSGSTYYASWAKGRFTISRDNSKNTLYLQMNSLRAEDTAVYYCARGEAYYAYGYVGYAYYHGAFDPWGQGTLVTVSS
VL: DIQMTQSPSSLSASVGDRVTITCQASHSISKYFSWYQQKPGKVPKLLIYEASTLASGVPSRFSGSGSGTDFTLTISSLQPEDVATYYCQSYYYGTSSSYAFGQGTKVEIK
notes: CDRs grafted to a human IgG1 framework; recombinant; also called hC36
- binding result [5]: binds
- binding result [6]: binds
- binding result [9]: binds
- binding result [10]: binds
- binding result [11]: no binding
- binding result [12]: no binding
- Kd [13]: 0.3 nM
- Kd [14]: 0.2 nM

Now from value to binder:

- Kd [1]: 0.001 nM
- binding result [2]: no binding
- binding result [3]: binds
- binding result [4]: binds
B2: AB2C130 (antibody, V domains shown)
VH: QSLEESGGDLVKPGASLTLTCTASGFSFSSGYWICWVRQAPGKGLEWIACIYTGVGATYYASWAKGRFTISKTSSTTVTLQMTSLTAADTATYFCARDFGGSSGFYFNLWGPGTLVTVSS
VL: FELTQTPSSVEAAVGATVTIKCQASQSISNALAWYQQKPGQPPKLLIYSASTLESGVPSRFKGSGSGTEFTLTISDLECADAATYYCQNYYGSTSSSYGVAFGGGTEVVVK
notes: as for B1

- binding result [5]: binds
- binding result [6]: binds
- Kd [7]: 0.08 nM
- Kd [8]: 0.235 nM
B6: humanized C12 (antibody, human IgG1, V domains shown)
VH: EVQLVESGGGLVQPGGSLRLSCAASGFSFSSSYWISWVRQAPGKGLEWIACIAIGSSGTTYYASWAKGRFTISRDNSKNTLYLQMNSLRAEDTAVYYCARSGDGYTYVELWGQGTLVTVSS
VL: DIQMTQSPSSLSASVGDRVTITCQASQSISSYLAWYQQKPGKVPKLLIYRASTLASGVPSRFSGSGSGTDFTLTISSLQPEDVATYYCQNYYDIDDSDNTFGQGTKVEIK
notes: CDRs grafted to a human IgG1 framework; recombinant; also called hC12

- binding result [5]: binds
- binding result [6]: binds
B8: humanized C15 (antibody, human IgG1, V domains shown)
VH: EVQLVESGGGLVQPGGSLRLSCAASGFSFSSSYYMCWVRQAPGKGLEWIACIYTTYGGTWYASWAKGRFTISRDNSKNTLYLQMNSLRAEDTAVYYCARSSISDVTYFNLWGQGTLVTVSS
VL: DIQMTQSPSSLSASVGDRVTITCQASQSISNYLAWYQQKPGKVPKLLIYRASTLESGVPSRFSGSGSGTDFTLTISSLQPEDVATYYCQSYYDNNNYAFGQGTKVEIK
notes: CDRs grafted to a human IgG1 framework; recombinant; also called hC15
